Experimental data from US20110262366A1.
No end group written: not given here.

How the values were obtained:
[1] = molecular target: endothelial cell receptor on HAEC (human aortic endothelial cells); experiment: competition, 100 µM free TKPPR against 10% BRU-114 microbubbles (competitor) on HAEC, static
[2] = molecular target: endothelial cell receptor on HAEC (human aortic endothelial cells); experiment: competition, 200 µM free TKPPR against TKPPR-beads (competitor) on HAEC, static, n = 11
[3] = molecular target: endothelial cell receptor on HAEC (human aortic endothelial cells); experiment: competition, 50 µM free TKPPR against 1% BRU-114 microbubbles (competitor) on HAEC, static
[4] = molecular target: endothelial cell receptor on HAEC (human aortic endothelial cells); experiment: competition, 2.5 µM free TKPPR against 1% BRU-292 microbubbles (competitor) on HAEC, static
[5] = molecular target: endothelial cell receptor on HAEC (human aortic endothelial cells); experiment: competition, 100 µM free TKPPR against 1% BRU-114 microbubbles (competitor) on HAEC, static
[6] = molecular target: endothelial cell receptor on HAEC (human aortic endothelial cells); experiment: competition, 5 µM free TKPPR against 1% BRU-114 microbubbles (competitor) on HAEC, static
[7] = molecular target: endothelial cell receptor on HAEC (human aortic endothelial cells); experiment: competition, 100 µM free TKPPR against 5% BRU-114 microbubbles (competitor) on HAEC, static
[8] = molecular target: endothelial cell receptor on HAEC (human aortic endothelial cells); experiment: competition, 50 µM free TKPPR against 1% BRU-114 microbubbles (competitor) on HAEC, static; remark: listed apart in the source
[9] = molecular target: endothelial cell receptor on HAEC (human aortic endothelial cells); experiment: competition, 100 µM free TKPPR against TKPPR-beads (competitor) on HAEC, static, n = 11
[10] = molecular target: endothelial cell receptor on RAEC (rabbit aortic endothelial cells); experiment: competition, 100 µM free TKPPR against 5% DPPE-GTKPPR microbubbles (competitor) on RAEC, static
[11] = molecular target: endothelial cell receptor on HAEC (human aortic endothelial cells); experiment: competition, 10 µM free TKPPR against 1% BRU-114 microbubbles (competitor) on HAEC, static
[12] = molecular target: endothelial cell receptor on HAEC (human aortic endothelial cells); experiment: competition, 100 µM free TKPPR against 1% DPPE-GTKPPR microbubbles (competitor) on HAEC, static
[13] = molecular target: endothelial cell receptor on HAEC (human aortic endothelial cells); experiment: competition, free TKPPR 10 µM (head prints 10 µmol) against 5% DPPE-GTKPPR microbubbles (competitor) on HAEC, static
[14] = molecular target: endothelial cell receptor on HAEC (human aortic endothelial cells); experiment: competition, 25 µM free TKPPR against 2% BRU-114 microbubbles (competitor) on HAEC, static
[15] = molecular target: endothelial cell receptor on HAEC (human aortic endothelial cells); experiment: competition, 50 µM free TKPPR against 5% BRU-114 microbubbles (competitor) on HAEC, static
[16] = molecular target: endothelial cell receptor on HAEC (human aortic endothelial cells); experiment: competition, 25 µM free TKPPR against 1% DPPE-GTKPPR microbubbles (competitor) on HAEC, static
[17] = molecular target: endothelial cell receptor on HAEC (human aortic endothelial cells); experiment: competition, 25 µM free TKPPR against 1% BRU-114 microbubbles (competitor) on HAEC, static
[18] = molecular target: endothelial cell receptor on HAEC (human aortic endothelial cells); experiment: competition, 5 µM free TKPPR against 1% DPPE-GTKPPR microbubbles (competitor) on HAEC, static
[19] = molecular target: endothelial cell receptor on HAEC (human aortic endothelial cells); experiment: competition against 1% DPPE-GTKPPR microbubbles (competitor) on HAEC, static
[20] = molecular target: endothelial cell receptor on HAEC (human aortic endothelial cells); experiment: competition, 10 µM free TKPPR against 5% BRU-114 microbubbles (competitor) on HAEC, static
[21] = molecular target: endothelial cell receptor on HAEC (human aortic endothelial cells); experiment: competition, 200 µM free TKPPR against 10% BRU-114 microbubbles (competitor) on HAEC, static
[22] = molecular target: endothelial cell receptor on HAEC (human aortic endothelial cells); experiment: competition, 10 µM free TKPPR against 1% BRU-114 microbubbles (competitor) on HAEC, static; remark: listed apart in the source
[23] = molecular target: endothelial cell receptor on HAEC (human aortic endothelial cells); experiment: competition, 25 µM free TKPPR against TKPPR-beads (competitor) on HAEC, static, n = 11
[24] = molecular target: endothelial cell receptor on HAEC (human aortic endothelial cells); experiment: competition, 100 µM free TKPPR against 1% BRU-114 microbubbles (competitor) on HAEC, static; remark: listed apart in the source
[25] = molecular target: endothelial cell receptor on HAEC (human aortic endothelial cells); experiment: competition, 200 µM free TKPPR against 5% BRU-114 microbubbles (competitor) on HAEC, static
[26] = molecular target: endothelial cell receptor on HAEC (human aortic endothelial cells); experiment: competition, 10 µM free TKPPR against 1% DPPE-GTKPPR microbubbles (competitor) on HAEC, static
[27] = molecular target: endothelial cell receptor on HAEC (human aortic endothelial cells); experiment: competition, 50 µM free TKPPR against 1% BRU-292 microbubbles (competitor) on HAEC, static
[28] = molecular target: endothelial cell receptor on HAEC (human aortic endothelial cells); experiment: competition, 200 µM free TKPPR against 1% BRU-114 microbubbles (competitor) on HAEC, static
[29] = molecular target: endothelial cell receptor on HAEC (human aortic endothelial cells); experiment: competition, 50 µM free TKPPR against 10% BRU-114 microbubbles (competitor) on HAEC, static
[30] = molecular target: endothelial cell receptor on HAEC (human aortic endothelial cells); experiment: competition, 2.5 µM free TKPPR against 1% BRU-114 microbubbles (competitor) on HAEC, static
[31] = molecular target: endothelial cell receptor on HAEC (human aortic endothelial cells); experiment: competition, 50 µM free TKPPR against TKPPR-beads (competitor) on HAEC, static, n = 11
[32] = molecular target: endothelial cell receptor on HAEC (human aortic endothelial cells); experiment: competition, 10 µM free TKPPR against 1% BRU-292 microbubbles (competitor) on HAEC, static
[33] = molecular target: endothelial cell receptor on HAEC (human aortic endothelial cells); experiment: competition, 10 µM free TKPPR against 1% BRU-114 microbubbles (competitor) on HAEC, static; remark: listed apart in the source

## TKPPR-OH [TKPPR-OH (L-threonyl-L-lysyl-L-prolyl-L-prolyl-L-arginine)]
[1]
  Bubbles Bound in presence of competitor: 399 bubbles
[2]
  % Inhibition: 72.2%
[3]
  Bubbles Bound in presence of competitor: 5 bubbles
[4]
  Bubbles Bound in presence of competitor: 888 bubbles
[5]
  Bubbles Bound in presence of competitor: 17 bubbles
[6]
  Bubbles Bound in presence of competitor: 790 bubbles
[7]
  Bubbles Bound in presence of competitor: 12 bubbles
[8]
  Bubbles Bound in presence of competitor: 56 bubbles
[9]
  % Inhibition: 62%
[10]
  RAEC bubbles bound in presence of competitor: 21 bubbles
[11]
  Bubbles Bound in presence of competitor: 535 bubbles
[12]
  Average % Inhibition: 93.7%
[13]
  Bubbles Bound in presence of competitor: 865 bubbles
[14]
  Bubbles Bound % (of control binding): 16 % of control
[15]
  Bubbles Bound in presence of competitor: 440 bubbles
[16]
  Average % Inhibition: 82%
[17]
  Bubbles Bound in presence of competitor: 106 bubbles
[18]
  Average % Inhibition: 45.7%
[19]
  % inhibition of bubble binding: 82.7%
[20]
  Bubbles Bound in presence of competitor: 1340 bubbles
[21]
  Bubbles Bound in presence of competitor: 66 bubbles
[22]
  Bubbles Bound in presence of competitor: 528 bubbles
[23]
  % Inhibition: 50.7%
[24]
  Bubbles Bound in presence of competitor: 4 bubbles
[25]
  Bubbles Bound in presence of competitor: 13 bubbles
[26]
  Average % Inhibition: 79.6%
[27]
  Bubbles Bound in presence of competitor: 462 bubbles
[28]
  Bubbles Bound in presence of competitor: 4 bubbles
[29]
  Bubbles Bound in presence of competitor: 857 bubbles
[30]
  Bubbles Bound in presence of competitor: 1240 bubbles
[31]
  % Inhibition: 50.5%
[32]
  Bubbles Bound in presence of competitor: 833 bubbles
[33]
  Bubbles Bound in presence of competitor: 10 bubbles
